Results: the Immune Epitope Database (IEDB)

What was measured:
HLA-B*07:02 [1] = experiment: IEDB peptide-MHC binding, purified MHC/competitive/radioactivity; ≥ and ≤ were set here for values at or beyond the usual limits of such assays
HLA-A*02:01 = experiment: as above; details: source organism: Plasmodium falciparum
HLA-B*07:02 [2] = experiment: IEDB peptide-MHC binding, purified MHC/competitive/radioactivity; filed as Kd, often an IC50 or EC50 that approximates it; ≥ and ≤ were set here for values at or beyond the usual limits of such assays; details: source organism: Human immunodeficiency virus 1
[3] = source organism: Human immunodeficiency virus 1

RPPIFIRRL
IC50 (HLA-B*07:02 [1]; source organism: human gammaherpesvirus 4): 21 nM

CPKVSFEPI
IC50 (HLA-B*07:02 [1]; [3]): 127 nM

HPVHAGPIA
IC50 (HLA-B*07:02 [1]; [3]): 57 nM

ILSVSSFLFV
IC50 (HLA-A*02:01): 208 nM

TPYAGEPAPF
IC50 (HLA-B*07:02 [1]; source organism: Plasmodium falciparum): 31 nM

YPLASLRSLF
IC50 (HLA-B*07:02 [1]; [3]): 408 nM

IPIHYCAPA
IC50 (HLA-B*07:02 [1]; [3]): 445 nM

QPRAPIRPIPT
IC50 (HLA-B*07:02 [1]; source organism: Human herpesvirus 4 strain B95-8): 110 nM

GPKVKQWPI
Kd (HLA-B*07:02 [2]): 5570 nM

TPGIRYQYNI
Kd (HLA-B*07:02 [2]): 8620 nM

GLLGVVSTV
IC50 (HLA-A*02:01): 24.3 nM

WPLTEEKIKI
Kd (HLA-B*07:02 [2]): 19400 nM
